Results on three molecules are retold here after patent EP4219720A2 (Caribou Biosciences, Inc., dated 2023).

In experiment [1] the target is T1, Cas8, Cas7, Cas6 and Cas5 of E. coli Type I-E Cascade with J3 crRNA (Escherichia coli K-12 MG1655, UniProt Q46901 1-502; Q46899 2-363; Q46897 2-199; Q46898 1-224).
T1 construct: They also hold the J3 crRNA; also called remaining Cascade subunits
T1 sequence 1: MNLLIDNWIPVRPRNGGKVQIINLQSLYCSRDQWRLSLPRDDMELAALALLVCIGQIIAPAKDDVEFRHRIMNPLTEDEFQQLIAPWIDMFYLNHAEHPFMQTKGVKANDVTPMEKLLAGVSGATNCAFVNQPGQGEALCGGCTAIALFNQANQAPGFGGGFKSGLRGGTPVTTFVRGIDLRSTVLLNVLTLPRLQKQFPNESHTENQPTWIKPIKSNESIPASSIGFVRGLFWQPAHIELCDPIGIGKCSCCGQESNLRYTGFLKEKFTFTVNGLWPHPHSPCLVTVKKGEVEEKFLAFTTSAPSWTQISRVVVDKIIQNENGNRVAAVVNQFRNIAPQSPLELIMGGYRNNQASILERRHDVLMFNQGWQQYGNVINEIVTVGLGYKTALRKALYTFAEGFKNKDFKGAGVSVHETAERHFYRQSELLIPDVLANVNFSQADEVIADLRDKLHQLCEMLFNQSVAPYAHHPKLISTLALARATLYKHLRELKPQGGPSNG
T1 sequence 2: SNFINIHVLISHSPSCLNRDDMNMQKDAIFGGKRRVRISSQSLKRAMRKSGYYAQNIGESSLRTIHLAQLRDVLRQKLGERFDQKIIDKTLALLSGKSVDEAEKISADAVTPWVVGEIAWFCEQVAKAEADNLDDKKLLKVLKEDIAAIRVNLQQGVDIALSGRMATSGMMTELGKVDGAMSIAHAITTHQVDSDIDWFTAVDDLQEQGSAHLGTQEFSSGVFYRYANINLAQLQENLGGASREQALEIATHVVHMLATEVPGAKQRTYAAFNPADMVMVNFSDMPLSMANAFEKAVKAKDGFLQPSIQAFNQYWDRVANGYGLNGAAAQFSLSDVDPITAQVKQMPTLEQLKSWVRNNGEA
T1 sequence 3: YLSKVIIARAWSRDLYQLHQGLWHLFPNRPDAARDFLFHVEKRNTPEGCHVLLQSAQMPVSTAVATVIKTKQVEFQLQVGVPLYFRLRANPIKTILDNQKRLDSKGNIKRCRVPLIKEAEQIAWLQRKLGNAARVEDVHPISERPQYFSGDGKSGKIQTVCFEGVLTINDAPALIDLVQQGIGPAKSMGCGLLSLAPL
T1 sequence 4: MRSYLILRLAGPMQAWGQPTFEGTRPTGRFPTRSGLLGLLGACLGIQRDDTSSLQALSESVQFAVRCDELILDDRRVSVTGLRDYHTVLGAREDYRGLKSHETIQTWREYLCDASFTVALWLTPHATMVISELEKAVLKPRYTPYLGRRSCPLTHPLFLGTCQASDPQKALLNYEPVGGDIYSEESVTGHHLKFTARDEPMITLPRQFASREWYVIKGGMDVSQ
As to the kind of experiment: co-expression in E. coli, Ni-NTA capture by His6 on Cse2, SEC, Coomassie SDS-PAGE.

The target of experiment [2] is T2, CasBCDE complex (Strep-tag II-HRV3C-Cse2, Cas7, Cas5, Cas6) with J3/L3 crRNAs (Escherichia coli K-12 MG1655, UniProt Q46899 2-363; Q46898 1-224; Q46897 2-199).
T2 construct: It also holds a crRNA (J3 or L3 guide), so it is a ribonucleoprotein; Removal of the Strep tag is not described; also called Cas8-less Cascade complex; Cas8-minus Cascade complex
T2 sequence 1: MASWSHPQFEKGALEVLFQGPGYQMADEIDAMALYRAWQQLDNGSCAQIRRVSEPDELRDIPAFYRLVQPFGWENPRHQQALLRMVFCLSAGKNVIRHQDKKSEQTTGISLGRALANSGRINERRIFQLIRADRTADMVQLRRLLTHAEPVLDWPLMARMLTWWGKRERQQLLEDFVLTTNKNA
T2 sequence 2: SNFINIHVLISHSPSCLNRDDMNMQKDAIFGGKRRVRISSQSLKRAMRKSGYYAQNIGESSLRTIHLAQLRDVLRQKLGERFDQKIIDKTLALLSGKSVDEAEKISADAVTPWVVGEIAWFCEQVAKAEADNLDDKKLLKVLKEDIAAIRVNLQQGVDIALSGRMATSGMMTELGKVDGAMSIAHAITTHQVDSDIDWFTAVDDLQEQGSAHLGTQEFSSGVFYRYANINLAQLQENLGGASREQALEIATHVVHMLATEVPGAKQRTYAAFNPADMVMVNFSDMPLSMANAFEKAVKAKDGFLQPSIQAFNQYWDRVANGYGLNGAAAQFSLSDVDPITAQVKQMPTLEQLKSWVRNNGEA
T2 sequence 3: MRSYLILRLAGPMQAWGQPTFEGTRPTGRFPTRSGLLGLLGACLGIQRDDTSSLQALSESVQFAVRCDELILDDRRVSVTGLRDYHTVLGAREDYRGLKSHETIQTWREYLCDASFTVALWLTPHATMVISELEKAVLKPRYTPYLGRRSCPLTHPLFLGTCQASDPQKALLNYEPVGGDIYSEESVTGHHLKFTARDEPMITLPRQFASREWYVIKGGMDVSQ
T2 sequence 4: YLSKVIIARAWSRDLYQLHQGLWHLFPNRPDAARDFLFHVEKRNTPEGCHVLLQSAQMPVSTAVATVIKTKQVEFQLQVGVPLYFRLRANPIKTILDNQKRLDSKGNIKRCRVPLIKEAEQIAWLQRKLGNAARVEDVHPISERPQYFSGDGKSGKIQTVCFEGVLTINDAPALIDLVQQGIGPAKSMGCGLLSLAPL
The experiment in a line: reconstitution from separately purified parts; tested by plasmid DNA cleavage.

The target in experiment [3] is T3, Cas7, Cas6 and Cas5 of E. coli Type I-E Cascade with L3 crRNA (Escherichia coli K-12 MG1655, UniProt Q46899 2-363; Q46897 2-199; Q46898 1-224).
T3 construct: They also hold the L3 crRNA; This grouping is mine
T3 sequence 1: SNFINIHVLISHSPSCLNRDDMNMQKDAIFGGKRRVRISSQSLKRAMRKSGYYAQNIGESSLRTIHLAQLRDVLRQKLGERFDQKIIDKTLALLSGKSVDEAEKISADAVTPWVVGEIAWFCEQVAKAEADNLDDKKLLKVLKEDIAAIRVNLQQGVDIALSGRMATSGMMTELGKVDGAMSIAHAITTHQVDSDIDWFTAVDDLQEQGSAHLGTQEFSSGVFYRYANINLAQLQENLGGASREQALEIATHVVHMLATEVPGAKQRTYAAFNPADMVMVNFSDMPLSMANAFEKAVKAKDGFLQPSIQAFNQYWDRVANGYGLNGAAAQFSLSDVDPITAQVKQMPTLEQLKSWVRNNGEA
T3 sequence 2: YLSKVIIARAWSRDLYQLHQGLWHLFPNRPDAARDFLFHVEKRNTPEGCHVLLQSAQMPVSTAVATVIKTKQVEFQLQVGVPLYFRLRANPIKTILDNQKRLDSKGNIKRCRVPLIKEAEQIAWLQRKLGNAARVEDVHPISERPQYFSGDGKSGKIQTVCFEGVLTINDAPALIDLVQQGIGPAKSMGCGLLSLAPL
T3 sequence 3: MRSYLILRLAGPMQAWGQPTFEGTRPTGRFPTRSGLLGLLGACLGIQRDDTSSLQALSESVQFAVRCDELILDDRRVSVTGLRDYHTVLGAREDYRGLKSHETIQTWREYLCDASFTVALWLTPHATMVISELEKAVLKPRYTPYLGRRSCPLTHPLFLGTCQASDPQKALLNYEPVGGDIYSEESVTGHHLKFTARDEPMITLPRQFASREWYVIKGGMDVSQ
The experiment in a line: co-expression in E. coli, Strep-Tactin capture by Strep-tag II on Cse2, SEC, Coomassie SDS-PAGE.

B1: His6-HRV3C-Cse2 (other)
chain: MAEHHHHHHGALEVLFQGPGYQMADEIDAMALYRAWQQLDNGSCAQIRRVSEPDELRDIPAFYRLVQPFGWENPRHQQALLRMVFCLSAGKNVIRHQDKKSEQTTGISLGRALANSGRINERRIFQLIRADRTADMVQLRRLLTHAEPVLDWPLMARMLTWWGKRERQQLLEDFVLTTNKNA
notes: The tagged subunit by which the Cascade complex was captured on Ni-NTA resin
Take B1: in experiment [1], the binding result is “binds”.

B2: NLS-GGS-FokISharkey-30aa-linker-Cas8 (after TEV cleavage) (other)
chain: SNMPKKKRKVQLVKSELEEKKSELRHKLKYVPHEYIELIEIARNPTQDRILEMKVMEFFMKVYGYRGEHLGGSRKPDGAIYTVGSPIDYGVIVDTKAYSGGYNLPIGQADEMQRYVEENQTRNKHINPNEWWKVYPSSVTEFKFLFVSGHFKGNYKAQLTRLNHITNCNGAVLSVEELLIGGEMIKAGTLTLEEVRRKFNNGEINFSGSETPGTSESATPESGGSGSSGGSGSSGGMNLLIDNWIPVRPRNGGKVQIINLQSLYCSRDQWRLSLPRDDMELAALALLVCIGQIIAPAKDDVEFRHRIMNPLTEDEFQQLIAPWIDMFYLNHAEHPFMQTKGVKANDVTPMEKLLAGVSGATNCAFVNQPGQGEALCGGCTAIALFNQANQAPGFGGGFKSGLRGGTPVTTFVRGIDLRSTVLLNVLTLPRLQKQFPNESHTENQPTWIKPIKSNESIPASSIGFVRGLFWQPAHIELCDPIGIGKCSCCGQESNLRYTGFLKEKFTFTVNGLWPHPHSPCLVTVKKGEVEEKFLAFTTSAPSWTQISRVVVDKIIQNENGNRVAAVVNQFRNIAPQSPLELIMGGYRNNQASILERRHDVLMFNQGWQQYGNVINEIVTVGLGYKTALRKALYTFAEGFKNKDFKGAGVSVHETAERHFYRQSELLIPDVLANVNFSQADEVIADLRDKLHQLCEMLFNQSVAPYAHHPKLISTLALARATLYKHLRELKPQGGPSNG
notes: The tag was removed with TEV protease; also called Fokl-Cas8 fusion protein
Regarding B2, the binding result in experiment [2] is “binds”.

B3: Strep-tag II-HRV3C-Cse2 (other)
chain: MASWSHPQFEKGALEVLFQGPGYQMADEIDAMALYRAWQQLDNGSCAQIRRVSEPDELRDIPAFYRLVQPFGWENPRHQQALLRMVFCLSAGKNVIRHQDKKSEQTTGISLGRALANSGRINERRIFQLIRADRTADMVQLRRLLTHAEPVLDWPLMARMLTWWGKRERQQLLEDFVLTTNKNA
notes: The tagged subunit by which the CasBCDE complex was captured on Strep-Tactin resin
On to B3, for which the binding result in experiment [3] is listed as “binds”.
